The target in one series is T1, pancreatic lipase (Sus scrofa, UniProt P00591).
T1 sequence (P00591 1-450): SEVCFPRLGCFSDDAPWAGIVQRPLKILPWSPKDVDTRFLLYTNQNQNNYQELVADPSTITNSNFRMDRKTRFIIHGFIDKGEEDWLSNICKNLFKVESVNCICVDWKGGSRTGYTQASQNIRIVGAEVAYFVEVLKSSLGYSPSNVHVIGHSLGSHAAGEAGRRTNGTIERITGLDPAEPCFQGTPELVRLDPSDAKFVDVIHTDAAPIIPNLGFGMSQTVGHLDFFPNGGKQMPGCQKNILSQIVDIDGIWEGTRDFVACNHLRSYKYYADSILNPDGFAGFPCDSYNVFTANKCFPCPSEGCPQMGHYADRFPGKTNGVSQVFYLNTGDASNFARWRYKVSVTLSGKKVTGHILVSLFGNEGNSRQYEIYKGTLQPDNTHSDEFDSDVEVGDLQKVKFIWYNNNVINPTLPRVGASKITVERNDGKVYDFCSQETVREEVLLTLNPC
Put plainly: 4-NPB hydrolysis assay. In kind it is biochemical.

Substrate in series [1]: CCCC(=O)Oc1ccc([N+](=O)[O-])cc1
Put plainly: Michaelis-Menten kinetics. In kind it is biochemical, Sus scrofa.

Usually IC50 stands for the concentration needed to halve the response being measured. Low values mean inhibition by little substance, high ones a need for much substance. Regarding `O=c1c(O)cc([C@H]2Oc3cc(O)cc(O)c3C[C@H]2O)cc2c([C@H]3Oc4cc(O)cc(O)c4C[C@H]3O)cc(O)c(O)c12` [TF, Theaflavin], the IC50 against pancreatic lipase is greater than 10 µM.

B1: pancreatic lipase (Sus scrofa) (protein)
chain: T1 sequence (P00591 1-450)
For orientation: Km means the substrate concentration at which the rate is half of its maximum. For orientation: Vmax means the top rate of the reaction or transport when substrate is in excess. With B1, in series [1], the Michaelis-Menten constant (Km) was 149.3 ± 24.2 µM and the maximum rate (Vmax) was 1.51e-05 ± 1e-06 µmol/min/mg.

(Values after paper PMC5228287 (Food chemistry, 2016).)
